Measurements as given in patent US20240279345A1, “ALPHA 5 BETA 1 INTEGRIN BINDING AGENTS AND USES THEREOF” (PASITHEA THERAPEUTICS CORP., priority 2021, published 2024).

B1: A-15B08: anti-α5β1 antibody, VH SEQ ID NO:25, VL SEQ ID NO:26; tested as mouse hybridoma antibody and as human IgG4 chimera (antibody, V domains shown)
VH: QVQLKESGPGLVAPSQSLSITCTISGFSLTSYGVHWVRQPPGKGLEWLVVIWSDGSTTYNSTLKSRLSISKDNSKSQVFFKMNSLQTDDTAMYYCARHYDYDGDWFAYWGQGTLVTVSA
VL: QIVLTQSPAIMSASLGERVTMTCTASSRVSSNSLHWYQQKPGSSPKLWIYSTSNLASGVPARFSGSGSGTSYSLTISSMEAEDAATYYCHQYLRSPPTFGGGTKLEIK
modifications: A-15B08 VH Sequence; A-15B08 VL Sequence
notes: tested as mouse hybridoma antibody and as human IgG4 chimera
B2: A2-7A05: anti-α5β1 antibody, VH SEQ ID NO:77, VL SEQ ID NO:78; tested as mouse hybridoma antibody and as human IgG4 chimera (antibody, V domains shown)
VH: QVQLQQPGAELVKPGASVKLSCKASGYTFTIYWINWVKQRPGQGLEWIGKIYPGSISTDYNEKFKSKATLTVDTSSSTAYMQLSSLTSDDSAVYYCAITGTGGLAYWGQGTLVTVSA
VL: ENVLTQSPAIMSASLGEKVTMTCRASSSVNYMYWYQQKSDASPKLWIYFTSSLAPGVPGRFSGSGSGNSYSLTISTMEGEDAATYYCQQFTTSPFTFGSGTKLEIK
modifications: A2-7A05 VH Sequence; A2-7A05 VL Sequence
notes: as for B1

How the values were obtained:
[1] = target: rh-α5β1 protein bound to human FN protein (Homo sapiens, UniProt P05556+P08648); assay: SPR dissociation of rh-α5β1 bound to FN; assay type: biochemical; settings: 1 μM antibody injected for 250s after 400 nM rh-α5β1; 25° C.
Sequence of rh-α5β1 protein bound to human FN protein (P08648 42-894 limits assumed): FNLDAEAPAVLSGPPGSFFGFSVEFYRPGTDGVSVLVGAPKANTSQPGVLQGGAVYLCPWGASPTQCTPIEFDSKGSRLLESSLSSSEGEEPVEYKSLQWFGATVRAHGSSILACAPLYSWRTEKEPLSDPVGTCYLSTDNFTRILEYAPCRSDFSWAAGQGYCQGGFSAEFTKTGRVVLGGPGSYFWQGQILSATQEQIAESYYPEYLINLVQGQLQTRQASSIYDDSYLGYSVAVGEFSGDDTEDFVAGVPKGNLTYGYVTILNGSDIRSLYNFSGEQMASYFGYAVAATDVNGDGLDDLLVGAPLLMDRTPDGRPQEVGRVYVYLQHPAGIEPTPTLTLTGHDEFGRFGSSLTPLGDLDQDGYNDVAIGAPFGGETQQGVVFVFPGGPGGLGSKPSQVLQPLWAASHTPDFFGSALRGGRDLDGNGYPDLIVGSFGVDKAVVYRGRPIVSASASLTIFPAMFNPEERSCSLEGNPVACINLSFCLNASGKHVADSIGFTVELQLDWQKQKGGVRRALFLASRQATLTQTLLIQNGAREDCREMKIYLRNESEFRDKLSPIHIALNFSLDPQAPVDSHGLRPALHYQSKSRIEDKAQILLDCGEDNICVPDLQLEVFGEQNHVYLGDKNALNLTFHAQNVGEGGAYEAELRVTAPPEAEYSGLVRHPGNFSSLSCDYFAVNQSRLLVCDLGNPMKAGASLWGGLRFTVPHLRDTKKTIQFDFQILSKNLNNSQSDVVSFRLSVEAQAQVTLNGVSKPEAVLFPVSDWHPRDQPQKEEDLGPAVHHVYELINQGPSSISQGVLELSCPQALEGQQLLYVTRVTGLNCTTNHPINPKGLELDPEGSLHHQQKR
Sequence of rh-α5β1 protein bound to human FN protein (P08648 895-995 limits assumed): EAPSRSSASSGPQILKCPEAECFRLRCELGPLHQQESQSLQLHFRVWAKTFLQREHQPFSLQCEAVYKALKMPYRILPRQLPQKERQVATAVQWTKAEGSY
Sequence of rh-α5β1 protein bound to human FN protein (P05556 21-728 limits assumed): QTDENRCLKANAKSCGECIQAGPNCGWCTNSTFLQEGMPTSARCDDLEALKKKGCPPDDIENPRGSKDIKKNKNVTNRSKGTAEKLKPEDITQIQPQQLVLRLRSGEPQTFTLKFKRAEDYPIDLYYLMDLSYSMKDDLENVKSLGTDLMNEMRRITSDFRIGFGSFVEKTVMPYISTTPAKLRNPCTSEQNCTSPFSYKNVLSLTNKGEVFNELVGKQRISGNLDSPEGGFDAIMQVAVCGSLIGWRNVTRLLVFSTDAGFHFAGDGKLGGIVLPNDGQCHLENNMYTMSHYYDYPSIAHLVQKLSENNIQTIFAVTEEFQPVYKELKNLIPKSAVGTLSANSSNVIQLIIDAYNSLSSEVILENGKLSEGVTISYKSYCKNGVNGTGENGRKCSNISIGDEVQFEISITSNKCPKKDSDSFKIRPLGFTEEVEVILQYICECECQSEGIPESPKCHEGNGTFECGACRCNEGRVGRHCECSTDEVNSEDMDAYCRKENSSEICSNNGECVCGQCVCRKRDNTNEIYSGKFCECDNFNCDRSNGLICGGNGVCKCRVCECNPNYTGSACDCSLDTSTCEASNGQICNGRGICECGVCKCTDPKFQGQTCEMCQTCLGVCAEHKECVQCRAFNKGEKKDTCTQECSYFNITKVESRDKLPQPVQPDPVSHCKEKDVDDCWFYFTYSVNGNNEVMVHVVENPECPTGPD
Description: Surface Plasmon Resonance (SPR) and a cell-based assay were used to test the effect of the antibodies on the dissociation of rh-α5β1 protein bound to human FN protein. The antibodies tested are representatives of the two groups of antibodies identified in Example 6 that define two different epitope binding groups and have distinct ligand blocking properties. […] In addition, the small molecule antagonist cyclic RGD (cRGD; Creative-Peptides, Shirley, New York, 11967, cat. no. CP22175) was tested as a comparator that inhibits α5β1 integrin binding to FN by competing at the ligand binding pocket.
Description of the SPR method used: FN protein dissolved in water was manually printed onto the bare gold-coated (thickness 47 nm) PlexArray Nanocapture Sensor Chip (Plexera Bioscience, Seattle, WA) at 40% humidity. The chip was incubated in 80% humidity at 4° C. for overnight and rinsed with 10×PBST (0.1M phosphate buffer, 1.54M NaCl, pH7.4, 0.5% Tween20) for 10 minutes (min), 1×PBST (0.01M phosphate buffer pH7.4, 0.154M NaCl, 0.05% Tween20) for 10 min, and deionized water twice for 10 min. The chip was then blocked with 5% (w/v) non-fat milk in water overnight, and washed with 10×PBST for 10 min, 1×PBST for 10 min, and deionized water twice for 10 min before being dried under a stream of nitrogen prior to use. SPR measurements were performed using PlexArray HT (Plexera Bioscience, Seattle, WA), a high-throughput surface plasmon resonance imaging (SPRi) platform. Collimated light (660 nm) passes through the coupling prism, reflects off the SPR-active gold surface, and is received by the CCD camera. Buffers and samples were injected by a non-pulsatile piston pump into the 30 μL flow cell that was mounted on the coupling prim. […] SPR binding responses (a.u.) were recorded and plotted over time.

U87MG cells = assay: Cellular detachment of U87MG cells from FN coated plates; assay type: cell-based; settings: for antibody concentration at which cellular detachment was seen: A-15B08 at 1 and 3 hours, A2-7A05 only obvious at 3 hours; for cellular detachment (cell rounding) of U87MG cells from FN coated plates: antibodies 2.0-0.016 μg/mL, cRGD 20-0.16 μM, 1 hour and 3 hours
Description: The A-15B08 and A2-7A05 antibodies and cRGD were also tested for their ability to induce dissociation of cellular α5β1 integrin from FN. U87MG cells (HTB-14™, ATCC, Manassas, VA) which were originally derived from a Glioblastoma tumor, are known to express α5β1 integrin, and adhere to FN coated plates. After an overnight incubation on FN coated plates, the U87MG cells formed a loosely packed monolayer and have extended spindle shapes. If the cells are induced to detach from the plates, by trypsin for example, the attachment points are released, and the cells become round. This type of change in morphology was used to assess whether the antibodies and the small molecule inhibitor cRGD can induce U87MG cells to dissociate from FN coated plates.
The following method was used to assess cellular detachment activity: A 96-well cell culture plate (Thermo Fisher Scientific, Waltham, MA, cat. no. 165306) was coated with FN (Human Fibronectin, R&D Systems, Minneapolis, MN 55413, cat. no. 1918-FN) by incubation of 50 uL per well 32 μg/mL FN in 1×PBS for 1 hour at 37° C., then washed 2× with EMEM media (ATCC, Manassas, VA, cat. no. 30-2003) supplemented with 10% Fetal Bovine Serum (FBS; ATCC, Manassas, VA, cat. no. 30-2021). U87MG cells were plated at 20,000 cells per well in EMEM media+10% FBS overnight to allow for maximum adherence. The next day the media was replaced with fresh media that included a 1:5 dilution series of antibodies A-15B08, A2-7A05 or isotype control IgG4 at concentrations of 2.0, 0.4, 0.08 and 0.016 μg/mL or cRGD at 20, 4, 0.8 and 0.16 μM. All tests were run in duplicate. Cell morphology was assessed, and images were captured using a 10× objective of an ECHO Rebel light microscope (ECHO, San Diego, CA).

Row | Molecule | effect on dissociation of rh-α5β1 protein bound to FN (SPR response) [1] | antibody concentration at which cellular detachment was seen (U87MG cells) | cellular detachment (cell rounding) of U87MG cells from FN coated plates (U87MG cells)
1 | B1 | rapid dissociation of the FN-α5β1 complex | 0.4 µg/mL | significant cell rounding
2 | B2 | partial dissociation at a slower rate | 0.4 µg/mL | much lower level
